Source: the DeepSol protein solubility set

Assay: soluble on expression in E. coli; label from the status in PepcDB or PDB records

Row | Sequence | soluble on expression in E. coli
1 | MEKQYRVLLYYKYVPIEDPEAFREQHLAFCKELGLLGRILVSSEGINGTVSGTVEQTEKYMETMKADPRFADMVFKIDEAEGHAFKKIFVRHKKELVTLRLEDDVDPNETTGQHLKPAEFYEKMQDPNTIVIDARNDYEYDLGHFRGAVRPDIEAFRELPEWIEEHKDMLEGKKILTYCTGGVRCEKFSGWLVKQGFEDVAQLDGGIVTYGKDPEVQGKLWDGQCYVFDERISVPVNRVEHVIVGKDYFTGEPCERYVNCANPSCNKKMICTPENEYKYMRSCSHECRTNPRNLYVKEHNMTEEEVNARLAAIETEDHAAAE | not soluble
2 | MSLFYYIVDDDEVFRSMLSQIIEDGDLGEVIGESEDGAFVEAEQLNYKKVDILFIDLLMPMRDGIETVRHIASSFTGKIIMISQVESKQLIGEAYTLGVEYYITKPLNKIEVVSVVRKVIERIRLERSIYDIQKSLNNVFQWEKPQMRSETVQEEKKISDSGRFLLAELGIAGENGSKDLLSMLEYLYGQEKAQTFEFGFPALKDIFHQITLKKLGEIASDADIEKEKKASEQRVRRAIYQSLNHLASLGLTDFSNPKFESYAPKFFDFTVVRKRMTEMTKDGVATSGHIRINTKKFIQVLYFEAKRLMEIEEGHHHHHH | soluble
3 | MGSDKIHHHHHHMVQAIDNTIATNFLTDAVVERHNFSQLNKTRIRFRIQLKKSTKSAAPKWADVLQAEVSEIESDLVKVTNSEVGLRGIKVFKKLDEAAAQLRQEIASVQEWMSADTGDWVCPIDLAPLVWNQLINIRDNIAPGLRNQLKADYEAGLVDYQERIDQFLSLNTWELAQDKQESVKANLLRAFPTLTDLEDYLQVVIGRPVIIPALSEQLNQQQAECLDQITKFIQQYDQNLEQRLRESALAGGEQLAAQLLEELADWEPGRKPVQFKKKMERHLMKVQVLLANADSEAGSSLEAMMTHLDSIVNDPAIESKNLGSDTRSQLQQKMQEIRIKLLDEQRNLQSLATEDVGLSKATVMSFKFR | not soluble
4 | GANRTLIVTTILEEPYVMYRKSDKPLYGNDRFEGYCLDLLKELSNILGFLYDVKLVPDGKYGAQNDKGEWNGMVKELIDHRADLAVAPLTITYVREKVIDFSKPFMTLGISILYRKGTPIDSADDLAKQTKIEYGAVRDGSTMTFFKKSKISTYEKMWAFMSSRQQSALVKNSDEGIQRVLTTDYALLMESTSIEYVTQRNCNLTQIGGLIDSKGYGVGTPIGSPYRDKITIAILQLQEEGKLHMMKEKWWRGNGCPE | soluble
5 | MGSDKIHHHHHHMGEHFLLEMVDITKEFPGVKALDRVQLKVRKGSVHALMGENGAGKSTLMKILIGMYKPNEGKIIFDGEEVTFNSINDALDKGISMIHQELSPIPEMTVAENIFLGREPTFGKSGLVDNKKLIEMTRNLLESLEINIDPRKKMGELSIANTQMIEIAKAISFHSKLVIMDEPTSAITEKEVAQLFKMIESLKKKGVGIIYITHKMSELDEIADDISVFRDGKYIGTDTAKNLTRDDLIKMMVGRELNQIFDKPEPKLGEVILSVKSLTKQDYFEDVSFEVRKGEIVGFAGLMGSGRTEVLETIFGVKEAESGEIFVNGQKARIKSPQDAVKNNMGFLTEDRKLTGLFLPLSVRENMITVNIDKYINMGWLNGKRVKKDCEQQKQKLYIKTPSIEQIVENLSGGNQQKVLLARWLLKNPDILFLDEPTRGIDVGAKSEFYNLIFELASQGKAIVVVSSEMAEILGLCDRILVMHEGKVTGELTREEANQEKIMQYATGQAKMAKKLHVHNNFEQTVTANKIEIG | not soluble
6 | MCLAIPGKVVEIKGNVGIVDFGGIRREVRLDLLSDVKVGDYVIVHTGFAIEKLDERRAREILEAWEEVFSVIGGE | not soluble
7 | EGGEPCACPHALHRVCGSDGETYSNPCTLNCAKFNGKPELVKVHDGPCEPDEDEDVCQECDGDEYKPVCGSDDITYDNNCRLECASISSSPGVELKHEGPCRT | soluble
8 | MSLEFAMWAYPWDLLDEGPSEVERRLRDIGIDELNLATNYHTVQAFTPHSPERRTLFARASSYFEPGPEYGDLEPVPYEGMNGDWVADAATGLSDLTLNSWTVGCHNSRLGMANPEYTLESAHGDDLVFGLCPSQPAVQTYLSALVSDLSSRDEFARIELETFDYFYGTGFGWHHQKIHARLGVLGEFLLGLCFCPHCRKNAKAAGVDAERVRSTVADTIDDIVAGDVSHEHPPEEWLADHSTVAAYVDVRERTLASLYATLADAAGTTSLGYYVGAPEPGREWVVGADLQALSNHVDYYCLPAYESSSDAVIGAYNAVETVIDDVPLHIGLLPGHPAIDDEATVVDIVETLDSKGVPRLSFYNYGLLPEQSLEWVETAIETVSEGHHHHHH | soluble
9 | MAHHHHHHMRPKKSAFKLAQRGERHLLHGNSEVSNFYGISESGFSNSRPPPYLLRFDKCNDIIAYTNEVDSECLKQIKNLAMLDIIKGHVTILPDVHLGKGIIIGSVFLTKDFIIPNGVGVDIGCGVLCVKINKLKKKNLREHIINNIYKKIKRNVPLSFDSHEKEVFDAKKVLDGLVAKYASRNMAHIMTPRHLKQMGTLGGGNHFIEIAYDASDGGEEALSGNQSGETHQNDAPHSYTSEQNHSPESDIYILIHSGSRNIGKRTAEFYDELASQESKVKRNDLAYLDLKKEQGQNYLKDMQLCLEYAKCNRIYMMKIIERIIYEEVNCTLDWQSVINIHHNFCNQELVTYVHSGEVKREYMYVTRKGATSSKKNQLGVIPGNMKVGSYIVRGKGNKLSYSSCSHGCGRVLSRTHAKKIINQTDFVNIMRGVRCDTNARIRDEAPQAYKNLGQVLRNQDSLVHVVRRLLPLINVKGE | not soluble
10 | MGHHHHHHSHMTIEEFAAGPAQSGILVDREVVSLFLHFTVNPKPRVEFIDRPRCCLRGKECSINRFQQVESRWGYSGTSDRIRFSVNKRIFVVGFGLYGSIHGPTDYQVNIQIIHTDSNTVLGQNDTGFSCDGSASTFRVMFKEPVEVLPNVNYTACATLKGPDSHYGTKGLRKVTHESPTTGAKTCFTFCYAAGNNNGTSVEDGQIPEVIFYT | not soluble
11 | MGSDKIHHHHHHMRAKAKLYPKEAARLIREKPGVREAVTGATLHFERNRLKAYAEVPIEAWRERAKAVKDHVLTHLDHYLELAERRLRENGVQVHWAETPEDAHRVLREVVARHGVKRAVKAKSMLTEELGVNPLLEALGVEVYETDLGEYLIQLLGEPPSHIVGPAIHLSLEEIQRLFHQRFGTPLDAPPEALAQVARRVLREAFLTAELGISGANFLVAETGTLALMENEGNIRLSTSLPRVHVAFVGIEKLLPRFADLALFLPLAARAATGQRLSTFVSLIQGPAREGEEGPLEVHVVLVDNGRTALLHDPEAWETLRCLRCGACLNACPVYRQTGGHPYGYVYSGPIGAVLDPGLLTLEEAYPLPYASTLCGACLEACPVKIPIPKLLLAWRHRAVEEGLTPSWEHGAMRAFRKVMESPALYRLFSKGLRGLPLPQDLLPLLKAWTEGRGPLKPSPKPFHELWKEVERGG | not soluble
12 | MTMPYYASAEQIMRDRSELARKGIARGRSVVVLTFRDGVLFVAENPSTALHKVSELYDRLGFAAVGKYNEFENLRRAGIVHADMRGYSYDRRDVTGRSLANAYAQTLGTIFTEQPKPYEVEICVAEVGRVGSPKAPQLYRITYDGSIVDEQHFVVMGGTTEPIATAMRESYRADLDLEAAVGIAVNALRQGGAGEGEKRNVDVASLEVAVLDQSRPRRAFRRIAGTALEQLVPAEPAAASESAPEPKPDTETKPADTQD | soluble
13 | MGSDKIHHHHHHCSTDFLDRNPLDKPSNEAFWRTEKDAMAAATGCYNGWFSMDEVIYADCASDNAYNPFTWEGWAVQAAGTATPTDPGYSYMGYGNMVRYNNFLENIHRPEMNEDLRKRLIAEVRFLRAWDYFQKVAHYGDVPLVTSVLEIKNANLPRTEKAKVVEFILKELKEIAPQLPESYSGSDVGRITRGAALTLKARLELFEHQYDDCMATCSEVMGLGYELFLDYKGLFKIANENNSEVILDVQYVESLYGNWVLGVLPPASVGGWCSINPTQSLVDAFECEDGKTIEESEVYDPKEPYLHRDPRLAVTVLAPGNLYEGKRYDPIDVKDPNGDYYAPYGRSKTGYLVRKYVDDLSDYADMWDCGMNAIVMRYAEVLLMYAECKIELNQIDNSVYDILDDIRTRAKMPVVDRTRYTGQEKLRELLRRERRVELAMEGLRWFDICRWKIGEQVLNGKVYGCLLGTVDPVTGALSLTNERIFVENRKFDPAKHYLWPIPQTVIDATPAIVQNPHY | not soluble
14 | TLTVNGPPIISSTQTQHALHGEKGQIKCFIRSTPPPDRIAWSWKENVLESGTSGRYTVETISTEEGVISTLTISNIVRADFQTIYNCTAWNSFGSDTEIIRLKEQGSEM | soluble
15 | MIKIAITKGRIQKQVTKLLENADYDVEPILNLGRELQIKTKDDLQIIFGKPNDVITFLEHGIVDIGFVGKDTLDENDFDDYYELLYLKIGQCIFALASYPDFSNKNFQRHKRIASKYPRVTKKYFAQKQEDIEIIKLEGSVELGPVVGLADAIVDIVETGNTLSANGLEVIEKISDISTRMIVNKSSFKFKKDKIIEMVERLEDAQTN | soluble
16 | MPTPKAFTLLGPTACGKTALALKIAETLPVEIISLDSALLYTGMDIGTAKPSASERAFVPHHLIDIITPVQTYSAARFVEDCTRLTGEITARGKCPLIVGGTMMYFRALTQGLNDLPEADACLRADLDEQKQMYGLDFLYRTLQKVDPETACRLKPNDSQRIGRALEVYYLTGRPMSAHLNGQPEHTLPFELYTAALIPEDRARLHENIALRFHLMLEQGFIGEVENLRRRYPGLTADSPAIRCVGYRQAWEHLDGATDRQTFIEKGIAATRQLAKRQLTWLRKTPLDCVADPFSDGTSGTRLIEAAKRFFGELEHHHHHH | soluble
17 | MGSDKIHHHHHHMKQLGLGLNLSTKKTRKREFLEDMERVVPWAVLVQIVAPHYPKAKTGRPPFGIETMLRIHYLQQWFGLSDPAMEEALHDVPLYREFAKLDSVTARLPDETTILRFRHLLERHNLAVDMLRVVNDLLQHKGLMMRTGTAVDATLISAPSSTKNAEGERDPEMKQTRKGNNWYFGMKAHIGVDAQSGLVHTVATTGANVNDLNMAGALLHGDEEAAFGDAGYQGVHKRPEAKGPTWHVAMRPGLRRKLNPFIEPDFIAERIEKMKASIRAKVEHPFRVIKRQFGFTKVRYRGLKKNTAQIVTLFALSNLWMARRQLIGARG | not soluble
18 | MSLENGYTPKLMYERLSKRLGSLFTFFSEPAFENLLPPPPPEQYRRPLTLVVTLDDFLIHSNWDTQHGWRTGKRPGLDYFLGYLSQYYEIVVFSSNLQMYSDKTVNKLDPYHAYISYALFREACRYKDGKLIKDLSLLNRDLGKTVMIDVDEDSAALQPENSIIVKKWEGQPDEYLISLIPFLEYLATQPVKDVRPILNSYKDKSNEGHHHHHH | soluble
19 | MAGRPKDPTINKKIYTEIQRLLETTHFRDITIDQISENTGISKATIYRRWKDKSSIIMSAFIEQSQYIAIHNQDNLYDDLFQFLVKIKDIYKTKLGSAVIEILISHQQMEARETFMTNYFNHNRKVLKEIVRKHIQEEEQDLFIDLIFSPIYFNILIKPETLDENYIKKMLNQVLRIYH | not soluble
20 | MAHHHHHHMAANEGNQSCMDALSSITFAQLAGPLQPVYGPSRVPRHQQFVDLVTDSSGMSPFIPFGTQGSANSSTAFPVDNAYLSKRAPPESEGQNRAAYYNNSSASMQTPEKVDKPQMLRQVSVGAPTPSSGMGMTASPATVCRYITHATPGSALLDETCTRTYLRSAPMNFVASTGITTDNAIGAVSNAVLSAAAAALPSVKVSIDDKPTSLAIELEQAYEEHVHESKRRVGDKVKRKEKKVLVTVGFPGVDNVPQMISDGTEEQLLNKEEVEQGKRRRERRQSRGKNKQKGDNNNNNCIFHDGDKFVSNFSSIHADNESHGECGDRKFLVTLRCHGHRDVTAICCLRLSKGKYVIFEADRGVDLGEVINVKELISEPSGNSAPAQVLRCALDEEVEDWKGPLVERENEAVEECRHVCEQLGLTIRVVGAAYQFDRQKLTFMYESDDRVDFRALLQVMFSKFRCRIWMERRGRGHQDNDAHTG | not soluble
